Residue numbers refer to the chain shown, from its start.

Common to all, as to test: EMSA
Holding throughout (details): tags: MBP fusion
(A gel shift assay detects complexes by their altered migration in electrophoresis.)

The target in series [1] is T1, ZFP SBS#719 (synthetic).
T1 chain: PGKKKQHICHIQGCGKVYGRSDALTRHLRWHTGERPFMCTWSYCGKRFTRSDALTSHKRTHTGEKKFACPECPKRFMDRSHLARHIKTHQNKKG
The method in brief: (§1)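 Purified ZFP was titrated against labeled double-stranded target (1 nM or lower, at least 10-fold below expected Kd) carrying the natural binding site with flanks. Binding buffer was 10 mM Tris pH 7.5, 100 mM KCl, 1 mM MgCl2, 0.1 mM ZnCl2, 5 mM DTT, 10% glycerol, 0.02% BSA, with equilibration for at least 45 min. Bound and free target were separated on a 10% polyacrylamide gel.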

Series [2] has as its target T2, ZFP SBS#724 (synthetic).
T2 chain: T1 chain with T55R, S56Q
The method in brief:
as §1

Series [3] addresses ZFP SBS#725 (synthetic). The method in brief: as §1
Series [4] has as its target ZFP SBS#734 (synthetic). An outline of the steps:
as §1

Series [5] has as its target ZFP SBS#746 (synthetic). The method in brief: as §1
The target in series [6] is ZFP SBS#704 (synthetic). An outline of the steps: as §1
ZFP SBS#704 (synthetic), sequence (chain, as listed by the source): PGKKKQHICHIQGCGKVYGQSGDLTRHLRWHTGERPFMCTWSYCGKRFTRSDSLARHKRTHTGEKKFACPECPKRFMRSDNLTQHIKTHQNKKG
Series [7] deals with T3, ZFP SBS#740 (synthetic).
T3 chain: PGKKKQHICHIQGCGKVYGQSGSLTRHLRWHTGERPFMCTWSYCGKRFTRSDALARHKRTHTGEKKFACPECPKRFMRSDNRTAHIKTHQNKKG
The method in brief: as §1

The target of series [8] is ZFP SBS#607 (synthetic). The method in brief: as §1
The target in series [9] is ZFP SBS#733 (synthetic). An outline of the steps: as §1
Series [10] has as its target ZFP SBS#732 (synthetic). An outline of the steps: as §1
The target of series [11] is T4, ZFP SBS#722 (synthetic).
T4 chain: T1 chain with A53H, S56R, D78R, R79S, S80D, H81A, A83R, R84Q
The method in brief:
as §1

For series [12], the target named is T5, ZFP SBS#758 (synthetic, UniProt P08047).
T5 chain: T3 chain with G22S, S23D, T25R, S51A, A53T, A55R, N81H, R82L, T83R, A84E
An outline of the steps:
as §1

Series [13] has as its target T6, ZFP SBS#757 (synthetic, UniProt P08047).
T6 chain: T3 chain with G22S, S23D, T25R, A53E, A55Q, N81H, R82L, T83R, A84E
An outline of the steps:
as §1

Series [14] concerns the target T7, ZFP SBS#567 (synthetic).
T7 chain: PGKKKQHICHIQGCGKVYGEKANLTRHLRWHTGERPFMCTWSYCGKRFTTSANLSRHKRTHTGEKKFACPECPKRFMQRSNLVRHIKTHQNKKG
An outline of the steps:
as §1

In series [15] the target is ZFP SBS#428 (synthetic). An outline of the steps: as §1
ZFP SBS#428 (synthetic), sequence (chain, as listed by the source): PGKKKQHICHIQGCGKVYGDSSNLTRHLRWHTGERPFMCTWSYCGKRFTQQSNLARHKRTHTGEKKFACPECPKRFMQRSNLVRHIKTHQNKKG
The target of series [16] is ZFP SBS#429 (synthetic). An outline of the steps:
as §1

Series [17] has as its target ZFP SBS#741 (synthetic). The method in brief: as §1
Series [18] deals with T8, ZFP SBS#720 (synthetic).
T8 chain: T7 chain with E20T, K21T, A22S, T25A, T50R, A52D, S55A, R79S, S80G, V83T
An outline of the steps: as §1

Series [19] concerns the target ZFP SBS#726 (synthetic). An outline of the steps: as §1
Series [20] addresses T9, ZFP SBS#742 (synthetic).
T9 chain: T3 chain with S21R, S23A, T25A, R26S, A53H, A55S, N81T, R82L, T83K, A84Q
An outline of the steps: as §1

Series [21] deals with T10, ZFP SBS#744 (synthetic).
T10 chain: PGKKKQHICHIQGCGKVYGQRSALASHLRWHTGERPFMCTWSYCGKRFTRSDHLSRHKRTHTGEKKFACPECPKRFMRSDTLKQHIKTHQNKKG
An outline of the steps:
as §1

Series [22] concerns the target T11, ZFP SBS#745 (synthetic).
T11 chain: T10 chain with K83T
An outline of the steps: as §1

The target in series [23] is T12, ZFP SBS#743 (synthetic).
T12 chain: T10 chain with S22G, K83T
The method in brief: as §1

For series [24], the target named is T13, ZFP SBS#568 (synthetic).
T13 chain: T7 chain with T50D, A52S, S55T, Q78T, R79S, S80A, V83S
The method in brief: as §1

In series [25] the target is T14, ZFP SBS#430 (synthetic).
T14 chain: T7 chain with T50D, A52S, S55T, R79Q, V83A
An outline of the steps: as §1

In series [26] the target is ZFP SBS#374 (synthetic). An outline of the steps: as §1
ZFP SBS#374 (synthetic), sequence (chain, as listed by the source): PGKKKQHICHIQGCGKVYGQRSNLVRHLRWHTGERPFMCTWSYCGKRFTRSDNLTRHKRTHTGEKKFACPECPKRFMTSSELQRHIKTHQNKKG
For series [27], the target named is ZFP SBS#427 (synthetic). The method in brief: as §1
ZFP SBS#427 (synthetic), sequence (chain, as listed by the source): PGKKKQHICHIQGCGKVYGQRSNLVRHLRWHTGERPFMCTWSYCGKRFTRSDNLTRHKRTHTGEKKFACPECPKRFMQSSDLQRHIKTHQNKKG
Series [28] concerns the target T15, ZFP SBS#747 (synthetic).
T15 chain: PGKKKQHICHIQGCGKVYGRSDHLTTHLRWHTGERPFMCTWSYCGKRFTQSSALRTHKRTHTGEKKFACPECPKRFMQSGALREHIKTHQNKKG
The method in brief:
as §1

Series [29] addresses T16, ZFP SBS#712 (synthetic).
T16 chain: T1 chain with A23N, T25A, A53N, T55A, S56R, D78M, R79S, S80D, A83S
An outline of the steps: as §1

Series [30] concerns the target ZFP SBS#751 (synthetic). An outline of the steps: as §1
For series [31], the target named is T17, ZFP SBS#713 (synthetic).
T17 chain: T1 chain with A23N, T25A, A53N, T55A, S56R, D78M, R79S, S80H, A83S
An outline of the steps: as §1

Series [32] has as its target T18, ZFP SBS#728 (synthetic).
T18 chain: T1 chain with A23N, T25A, A53N, T55A, S56R, R79S, H81K, A83S
The method in brief: as §1

Series [33] addresses ZFP SBS#731 (synthetic). An outline of the steps:
as §1

Series [34] addresses T19, ZFP SBS#752 (synthetic, UniProt P08047).
T19 chain: T3 chain with Q20R, G22H, S23H, T25A, A55S, R82L, T83S, A84R
The method in brief: as §1

Series [35] addresses T20, ZFP SBS#736 (synthetic, UniProt P08047).
T20 chain: T3 chain with Q20R, G22D, S23H, T25A, A55S, R82L, T83S, A84R
The method in brief:
as §1

ZFP SBS#725 (synthetic), sequence (chain, as listed by the source): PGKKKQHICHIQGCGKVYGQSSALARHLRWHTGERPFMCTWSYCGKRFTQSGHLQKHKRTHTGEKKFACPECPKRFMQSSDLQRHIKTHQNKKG
ZFP SBS#429 (synthetic), sequence (chain, as listed by the source): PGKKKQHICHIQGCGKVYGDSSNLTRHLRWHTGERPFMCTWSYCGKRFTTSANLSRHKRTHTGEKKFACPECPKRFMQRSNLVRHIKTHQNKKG
ZFP SBS#741 (synthetic), sequence (chain, as listed by the source): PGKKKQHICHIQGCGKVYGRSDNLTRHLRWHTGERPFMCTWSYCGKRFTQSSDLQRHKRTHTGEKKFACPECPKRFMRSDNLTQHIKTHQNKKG
ZFP SBS#726 (synthetic), sequence (chain, as listed by the source): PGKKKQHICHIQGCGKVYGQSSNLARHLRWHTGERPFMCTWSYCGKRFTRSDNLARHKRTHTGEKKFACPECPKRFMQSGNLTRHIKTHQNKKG
ZFP SBS#734 (synthetic), sequence (chain, as listed by the source): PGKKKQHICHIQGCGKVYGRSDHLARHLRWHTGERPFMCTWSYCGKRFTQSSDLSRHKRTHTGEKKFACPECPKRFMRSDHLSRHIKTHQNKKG
ZFP SBS#751 (synthetic), sequence (chain, as listed by the source): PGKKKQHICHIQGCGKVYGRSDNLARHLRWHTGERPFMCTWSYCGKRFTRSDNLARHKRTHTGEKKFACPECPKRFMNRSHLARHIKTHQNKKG
ZFP SBS#731 (synthetic), sequence (chain, as listed by the source): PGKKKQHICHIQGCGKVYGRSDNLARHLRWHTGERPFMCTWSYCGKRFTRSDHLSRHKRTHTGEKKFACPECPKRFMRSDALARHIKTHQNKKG
ZFP SBS#732 (synthetic), sequence (chain, as listed by the source): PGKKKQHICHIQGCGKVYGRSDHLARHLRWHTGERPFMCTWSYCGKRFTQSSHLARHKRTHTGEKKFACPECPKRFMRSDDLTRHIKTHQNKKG
ZFP SBS#746 (synthetic), sequence (chain, as listed by the source): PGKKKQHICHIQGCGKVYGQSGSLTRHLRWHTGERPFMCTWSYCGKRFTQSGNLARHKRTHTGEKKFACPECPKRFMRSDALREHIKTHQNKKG

B1: GGCATGGTGG (dsDNA)
DNA 1: GGCATGGTGG
DNA 2: CCACCATGCC
As to B1, the Kd (commonly the constant that tells how readily two partners part at equilibrium) in series [1] stood at 20 nM; in series [2] it was 2.5 nM.

B2: GCTTGAGTTA (dsDNA)
DNA 1: GCTTGAGTTA
DNA 2: TAACTCAAGC
Regarding B2, in series [3], binding was characterised by a dissociation constant (Kd) of 3000 nM.

B3: GGGGCTGGGT (dsDNA)
DNA 1: GGGGCTGGGT
DNA 2: ACCCAGCCCC
For the molecule B3, in series [4], binding was put at a Kd of 0.25 nM. That is a sub-nanomolar value.

B4: CTGGAAGCAT (dsDNA)
DNA 1: CTGGAAGCAT
DNA 2: ATGCTTCCAG
In the case of B4, in series [5], binding was characterised by a dissociation constant (Kd) of 2.07 nM.

B5: AAGGTGGCAG (dsDNA)
DNA 1: AAGGTGGCAG
DNA 2: CTGCCACCTT
B5: the Kd in series [6] was found to be 5 nM; in [7] it was 12.5 nM; in series [8], 6.5 nM.

B6: GCGGGTGGGG (dsDNA)
DNA 1: GCGGGTGGGG
DNA 2: CCCCACCCGC
Turning to B6, the Kd came out at 0.32 nM in series [9] and 22.5 nM in series [10].

B7: ATGGGGGTGG (dsDNA)
DNA 1: ATGGGGGTGG
DNA 2: CCACCCCCAT
In turn, B7 yielded a Kd in series [11] of 0.7 nM.

B8: CGGGCGGCTG (dsDNA)
DNA 1: CGGGCGGCTG
DNA 2: CAGCCGCCCG
In the case of B8, the results for the Kd in [12] and in [13] were 16.5 nM and 14.5 nM, respectively.

B9: GAAGATGAC (dsDNA)
DNA 1: GAAGATGAC
DNA 2: GTCATCTTC
With B9, the figures for the Kd in series [14], in series [15] and in series [16] were 47.5 nM, 120 nM and 50 nM, respectively.

B10: AAGGCTGAGA (dsDNA)
DNA 1: AAGGCTGAGA
DNA 2: TCTCAGCCTT
In the case of B10, in [17], the dissociation constant Kd amounted to 15 nM. That is a double-digit nanomolar value.

B11: GAAGAGGATG (dsDNA)
DNA 1: GAAGAGGATG
DNA 2: CATCCTCTTC
For the molecule B11, the Kd amounted to 1.6 nM in series [18] and 1.5 nM in series [19].

B12: ACGGGGTTAT (dsDNA)
DNA 1: ACGGGGTTAT
DNA 2: ATAACCCCGT
Regarding B12, the Kd in series [20] is 29 nM; in [21], 8.33 nM; in series [22] it was 12.5 nM; in series [23], 10 nM.

B13: GATGACGAC (dsDNA)
DNA 1: GATGACGAC
DNA 2: GTCGTCATC
Consider B13, for which the dissociation constant (Kd) in series [24] stood at 300 nM; in series [25], 250 nM.

B14: GCTGAGGAA (dsDNA)
DNA 1: GCTGAGGAA
DNA 2: TTCCTCAGC
As for B14, the Kd in series [26] is 3.3 nM; in [27], 1 nM.

B15: CTATTTTGGG (dsDNA)
DNA 1: CTATTTTGGG
DNA 2: CCCAAAATAG
For B15, binding in series [28] was put at a Kd of 2000 nM.

B16: GGTGAGGAGT (dsDNA)
DNA 1: GGTGAGGAGT
DNA 2: ACTCCTCACC
In the case of B16, the Kd in [29] was 9.5 nM; in [30], 7 nM; in [31], 0.15 nM; in series [32], 15 nM.

B17: GTGGGGGAGA (dsDNA)
DNA 1: GTGGGGGAGA
DNA 2: TCTCCCCCAC
In [33], B17 yielded a Kd of 12 nM.

B18: GAGGTGGGGA (dsDNA)
DNA 1: GAGGTGGGGA
DNA 2: TCCCCACCTC
B18: the Kd in [34] is 31 nM; in series [35], 0.47 nM.

Source of the values: US20030068675, “Position dependent recognition of GNN nucleotide triplets by zinc fingers” (published 2003).
